Here are results for 1 substance from PMC3673099.

The target in assay [1] is CyPet-(pre-SUMO1)-YPet (human) (UniProt P63165).
The target in assay [2] is CyPet-(pre-SUMO2)-YPet (human) (UniProt P61956).
Assay [3] deals with CyPet-(pre-SUMO3)-YPet (human) (UniProt P55854).
Sequence of UniProt P55854 (P55854 1-92): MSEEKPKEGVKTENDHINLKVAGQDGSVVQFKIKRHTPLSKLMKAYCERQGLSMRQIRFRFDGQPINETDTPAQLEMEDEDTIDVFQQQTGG

Sequence of UniProt P63165 (P63165 1-97): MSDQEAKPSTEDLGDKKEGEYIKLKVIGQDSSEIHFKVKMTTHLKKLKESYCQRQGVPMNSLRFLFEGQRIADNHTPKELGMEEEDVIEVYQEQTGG
Sequence of UniProt P61956 (P61956 whole entry): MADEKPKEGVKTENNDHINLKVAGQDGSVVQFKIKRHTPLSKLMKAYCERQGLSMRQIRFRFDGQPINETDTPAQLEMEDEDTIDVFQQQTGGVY

For the substance catalytic domain of SENP1 (enzyme), in assay [1], the Km of the SENP1 catalytic domain for CyPet-(pre-SUMO1)-YPet, FRET-based protease assay, Michaelis-Menten fit, real-time detection (internal calibration) was 0.14 µM and the Km of the SENP1 catalytic domain for CyPet-(pre-SUMO1)-YPet, FRET-based protease assay, Michaelis-Menten fit, standard curve analysis is 0.18 µM. In assay [2], the Km of the SENP1 catalytic domain for CyPet-(pre-SUMO2)-YPet, FRET-based protease assay, Michaelis-Menten fit, real-time detection (internal calibration) came to 0.17 µM and the Km of the SENP1 catalytic domain for CyPet-(pre-SUMO2)-YPet, FRET-based protease assay, Michaelis-Menten fit, standard curve analysis came out at 0.17 µM. Besides, in assay [3], the Km of the SENP1 catalytic domain for CyPet-(pre-SUMO3)-YPet, FRET-based protease assay, Michaelis-Menten fit, real-time detection (internal calibration) is 1.99 µM and the Km of the SENP1 catalytic domain for CyPet-(pre-SUMO3)-YPet, FRET-based protease assay, Michaelis-Menten fit, standard curve analysis was found to be 3.75 µM.
